Measured values taken from publication PMC5549943.
Several values for one entry are separate records, joined by “and”; a condition that tells them apart may be missing. Equal entries are not always repeated.

Target: Hepatitis B Virus core protein Cp149 dimer (Hepatitis B Virus)
Test: resistive-pulse sensing

In the case of “Hepatitis B Virus core protein Cp149 dimer (domain or fragment)”, the stoichiometry N is reported as 90 dimers and 120 dimers.
